Source: PMC10858260

Tests used:
[1] = test system: PsdR-P (phosphorylated with ammonium phosphoramidate) (Lacticaseibacillus paracasei BL23); assay: BLI; conditions: BLI (BLITz, streptavidin sensors, DNA immobilized): 50 mM Tris-HCl pH 7.4, 150 mM NaCl, 0.1% Tween 20; protein preincubated 30 min with 50 mM phosphodonor and …
[2] = test system: ApsR-P (phosphorylated with acetyl-phosphate) (Lacticaseibacillus paracasei BL23); assay: BLI; conditions: BLI (BLITz, streptavidin sensors, DNA immobilized): 50 mM Tris-HCl pH 7.4, 150 mM NaCl, 0.1% Tween 20; protein preincubated 30 min with 50 mM phosphodonor and …

| Sequence | Kd [1] | Kd [2] |
| --- | --- | --- |
| CAATCATCTCGCAAACTTACATCACCTTACAAAAAGGTCAGAAAGGGTGCGAGGGGCTTGTAGATTTCCTATAATGAATAGGAATATAGACACGGAGGAC (double strand) [PmprF] | 94.8 nM | 26600 nM |
| GGTAAAGAAAGACTAAAGCAGCTTACAAAGCCGTAAGTTACAAACAACCATCCGTTAGGCCATTATCAGGAAAAAGGCAGCCTAACCCGCTATCATAAAG (double strand) [PderA] | 172 nM | 4740 nM |
| GTAAGCTACCTTACCAGCTTGTAAGCAACTACGAATCACTGTAAGTAGGCATGGGGCATCATCCCCGCTAAGCTAATAAATGAAAGGGGACGATCACATG (double strand) [PpsdA] | 116 nM | 108000 nM |
| TCACGCTTCTCATATTACGAAACTGTTAGCTCATTGTTACGCAATTCGTTGGCGTCATTTTTTCTGAAAACCTATAATGAATGTGTAAATAAAAACGTGG (double strand) [Pdlt] | 100 nM | 7470 nM |
